{"source": "patent US10434074B2", "about": "“Peptide and small molecule agonists of EPHA and uses thereof” (CASE WESTERN RESERVE UNIVERSITY, priority 2004, dated 2019)", "key": {"EphA2": {"biological_target": "EphA2 (Homo sapiens, UniProt P29317)", "sequence (P29317 24-976)": "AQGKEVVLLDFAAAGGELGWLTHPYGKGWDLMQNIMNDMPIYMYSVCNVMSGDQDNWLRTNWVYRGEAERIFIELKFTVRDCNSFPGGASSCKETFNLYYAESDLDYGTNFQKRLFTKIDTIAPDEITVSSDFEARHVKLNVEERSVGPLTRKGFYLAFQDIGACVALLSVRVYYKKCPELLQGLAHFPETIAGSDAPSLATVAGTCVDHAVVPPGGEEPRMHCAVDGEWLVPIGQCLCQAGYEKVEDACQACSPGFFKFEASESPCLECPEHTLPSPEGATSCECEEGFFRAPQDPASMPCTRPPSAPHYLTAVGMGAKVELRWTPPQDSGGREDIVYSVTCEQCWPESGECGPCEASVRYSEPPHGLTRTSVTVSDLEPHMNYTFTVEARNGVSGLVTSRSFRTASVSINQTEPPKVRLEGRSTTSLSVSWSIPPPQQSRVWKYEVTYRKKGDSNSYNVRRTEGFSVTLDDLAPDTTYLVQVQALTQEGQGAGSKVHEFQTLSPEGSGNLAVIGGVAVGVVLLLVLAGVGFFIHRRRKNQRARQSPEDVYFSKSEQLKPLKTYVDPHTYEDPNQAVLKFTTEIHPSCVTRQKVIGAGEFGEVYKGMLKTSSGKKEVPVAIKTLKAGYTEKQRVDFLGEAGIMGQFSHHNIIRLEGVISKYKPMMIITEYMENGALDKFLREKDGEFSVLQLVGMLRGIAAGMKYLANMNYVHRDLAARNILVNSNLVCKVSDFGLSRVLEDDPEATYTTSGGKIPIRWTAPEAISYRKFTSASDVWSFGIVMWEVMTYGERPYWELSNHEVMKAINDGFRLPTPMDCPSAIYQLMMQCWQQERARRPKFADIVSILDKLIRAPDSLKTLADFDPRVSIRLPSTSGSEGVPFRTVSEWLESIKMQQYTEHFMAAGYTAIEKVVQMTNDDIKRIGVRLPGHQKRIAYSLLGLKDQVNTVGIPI", "assay": "EphA2 activation and ERK status in DU-145 cells", "assay_type": "cell-based", "parameters": "endogenous in cells; host or cells: DU-145 cells", "procedure": "FIGS. 1(A-D) illustrate (A) EphA2 is the primary EphA kinase expressed on human prostate cancer cells. Cell surface proteins were labeled with membrane impermeable biotin (Method). Top panel: Saturating amount of ephrin-A1-Fc (EA1-Fc) was used to precipitate most EphA kinases. Lower panel: EphA2 was first immunodepleted from cell lysates with an EphA2-specific antibody. Saturating amount of ephrin-A1-Fc was then added to the EphA2-depleted cell lysates to precipitate other members of EphA kinases. The precipitates were subject immunoblot with HRP-labeled avidin. (B) Expression of EphA2, but not other EphA kinases and ephrin-As, is elevated in cell lines derived from more malignant prostate cancer. Total cellular proteins were immunoblotted with the indicated antibodies. (C) Immunofluorescence staining of EphA2. Human prostate cancer cells grown on cover slip were stained with anti-EphA2 antibody. Texas-Red labeled secondary was used to visualize the bound primary antibody. […] To determine the ERK activation status, total cell lysates were analyzed by immunoblot using anti-phospho ERK (p-ERK) antibody. […]\nCells cultured in 6 well plates at 70-80% confluence were stimulated with 0.5 μg/ml Fc, 1 μg/ml epnrinA1-Fc or 20 ng/ml HGF/SF or their combinations as indicated. […] For quantitative analysis, band densities were measured using KODAK 1D imagine analysis software (Eastman Kodak Company)."}, "DU-145 cells": {"tested_on": "DU-145 cells", "assay": "HGF/SF-induced cell scattering / EMT", "assay_type": "cell-based, human", "procedure": "FIGS. 4(A-B) illustrate EphA activation attenuated cell scattering induced by HGF/SF. DU-145 cells were cultured in the presence of indicated reagents. Cell morphology was recorded 24 and 48 hours after the initiation of treatments (A). Numbers of total cells and cells without contact with other cells were counted in 6-8 randomly chosen fields (B). * HGF/SF/Fc vs. HGF/SF/ephrinA1-Fc: p<10^−5.\nTumor cells scattering/detaching from primary tumors is considered as the first step in tumor metastasis. In addition to promoting cell migration and invasion, HGF/SF is known to disrupt cell-cell adhesion mediated by E-cadherin, induce epithelial-mesenchymal transition (EMT) and cause cell scattering. Therefore, we examined the effects of EphA2 activation on EMT and scattering induced by HGF/SF. DU-145 cells were treated with Fc (control) or ephrin-A1-Fc in the presence or absence of HGF/SF. Cell morphology was recorded 24 and 48 hours after the addition of stimuli (FIGS. 4A and B). In control Fc-treated cells, only about 5% of cells were found as individual cells with no direct contact with neighboring cells, while remaining cells aggregate to form colonies with typical epithelial morphology. […] Following 24 hour HGF treatment, most of cells underwent EMT characterized by detachment from each other and transformation into spindle-shaped fibroblastic morphology. […]"}}, "data": [{"molecule": "ephrin-A1-Fc: ephrin-A1 dimerized by fusion to the heavy chain of human IgG1 (protein, left off: a dimerising Fc or GST, ephrin-A1 dimerized by fusion to the heavy chain of human IgG1) DRHTVFWNSSNPKFRNEDYTIHVQLNDYVDIICPHYEDHSVADAAMEQYILYLVEHEEYQLCQPQSKDQVRWQCNRPSAKHGPEKLSEKFQRFTPFTLGKEFKEGHSYYYISKPIHQHEDRCLRLKVTVSGKITHSPQAHDNPQEKRLAADDPEVRVLHSIGHS", "values": [{"measurement": "ERK1/2 activity", "setting": "EphA2", "result": "reduced"}, {"measurement": "EphA2 activation, time course", "setting": "EphA2", "result": "readily occurred in two minutes"}, {"measurement": "fraction of scattered cells", "setting": "DU-145 cells; 24 hour HGF treatment, 95% with HGF and Fc", "result": 15, "unit": "%"}, {"measurement": "cell morphology", "setting": "DU-145 cells; without HGF/SF", "result": "more compact cobblestone morphology"}]}]}
